Biological target: T1, KIF1C-SNAPf-3XFLAG, full-length KIF1C (human, UniProt O43896 1-1103, TMR via the SNAP-tag (in the TIRF assays))
T1 sequence: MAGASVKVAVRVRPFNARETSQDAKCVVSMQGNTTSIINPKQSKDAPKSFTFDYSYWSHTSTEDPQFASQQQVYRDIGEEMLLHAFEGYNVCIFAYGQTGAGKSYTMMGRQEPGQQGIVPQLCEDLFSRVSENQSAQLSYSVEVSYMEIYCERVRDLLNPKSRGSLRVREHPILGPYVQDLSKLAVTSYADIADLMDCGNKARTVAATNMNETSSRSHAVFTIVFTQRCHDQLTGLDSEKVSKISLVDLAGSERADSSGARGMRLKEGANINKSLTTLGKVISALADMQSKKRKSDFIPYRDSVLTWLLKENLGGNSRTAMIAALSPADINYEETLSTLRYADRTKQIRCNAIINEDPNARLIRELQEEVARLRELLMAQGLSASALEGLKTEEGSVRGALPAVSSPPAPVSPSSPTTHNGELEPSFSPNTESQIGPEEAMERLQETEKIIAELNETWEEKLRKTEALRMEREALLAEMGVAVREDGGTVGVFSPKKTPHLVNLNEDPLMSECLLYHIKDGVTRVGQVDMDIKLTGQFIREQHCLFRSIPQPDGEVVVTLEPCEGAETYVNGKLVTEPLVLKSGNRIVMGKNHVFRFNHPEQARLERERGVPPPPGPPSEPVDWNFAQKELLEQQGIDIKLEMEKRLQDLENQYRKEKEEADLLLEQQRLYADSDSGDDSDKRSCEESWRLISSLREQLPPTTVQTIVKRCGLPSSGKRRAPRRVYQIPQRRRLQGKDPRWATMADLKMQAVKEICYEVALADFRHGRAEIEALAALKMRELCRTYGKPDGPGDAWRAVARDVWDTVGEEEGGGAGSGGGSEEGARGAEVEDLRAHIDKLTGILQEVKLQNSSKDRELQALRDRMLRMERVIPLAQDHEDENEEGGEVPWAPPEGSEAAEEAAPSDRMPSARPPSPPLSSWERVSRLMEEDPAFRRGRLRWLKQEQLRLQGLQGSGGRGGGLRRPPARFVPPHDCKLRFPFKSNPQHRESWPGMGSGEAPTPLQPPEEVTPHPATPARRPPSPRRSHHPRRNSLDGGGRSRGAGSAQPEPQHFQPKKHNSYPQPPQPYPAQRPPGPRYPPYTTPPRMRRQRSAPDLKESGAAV
Assay: single-molecule three-colour TIRF colocalisation on microtubules

B1: Halo-HOOK3(1-718)-3XFLAG, full-length HOOK3 (natural protein)
chain: MFSVESLERAELCESLLTWIQTFNVDAPCQTVEDLTNGVVMAQVLQKIDPAYFDENWLNRIKTEVGDNWRLKISNLKKILKGILDYNHEILGQQINDFTLPDVNLIGEHSDAAELGRMLQLILGCAVNCEQKQEYIQAIMMMEESVQHVVMTAIQELMSKESPVSAGNDAYVDLDRQLKKTTEELNEALSAKEEIAQRCHELDMQVAALQEEKSSLLAENQVLMERLNQSDSIEDPNSPAGRRHLQLQTQLEQLQEETFRLEAAKDDYRIRCEELEKEISELRQQNDELTTLADEAQSLKDEIDVLRHSSDKVSKLEGQVESYKKKLEDLGDLRRQVKLLEEKNTMYMQNTVSLEEELRKANAARSQLETYKRQVVELQNRLSEESKKADKLDFEYKRLKEKVDSLQKEKDRLRTERDSLKETIEELRCVQAQEGQLTTQGLMPLGSQESSDSLAAEIVTPEIREKLIRLQHENKMLKLNQEGSDNEKIALLQSLLDDANLRKNELETENRLVNQRLLEVQSQVEELQKSLQDQGSKAEDSVLLKKKLEEHLEKLHEANNELQKKRAIIEDLEPRFNNSSLKIEELQEALRKKEEEMKQMEERYKKYLEKAKSVIRTLDPKQNQGAAPEIQALKNQLQERDRLFHSLEKEYEKTKSQREMEEKYIVSAWYNMGMTLHKKAAEDRLASTGSGQSFLARQRQATSSRRSYPGHVQPATAR
modifications: Alexa-488 via the HaloTag (in the TIRF assays)
B1: binds.
